US20190127451A1

Biological target: alternative-spliced domain A1 of human Tenascin C (human) (UniProt P24821)
Test: SPR (BIAcore), antibody over hTnC A1 on CM5 chip, fitted 50 nM curves

Chain of UniProt P24821 (P24821 1072-1162): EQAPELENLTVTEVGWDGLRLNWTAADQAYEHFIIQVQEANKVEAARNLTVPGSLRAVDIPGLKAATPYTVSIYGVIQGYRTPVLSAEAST

- fold lower apparent KD than wild-type IgG(F16)-3S: 4 to 8 fold
B1: IgG(F16)-3S-N88Q (antibody, V domains shown)
VH: EVQLLESGGGLVQPGGSLRLSCAASGFTFSRYGMSWVRQAPGKGLEWVSAISGSGGSTYYADSVKGRFTISRDNSKNTLYLQMNSLRAEDTAVYYCAKAHNAFDYWGQGTLVTVSS
VL: SSELTQDPAVSVALGQTVRITCQGDSLRSYYASWYQQKPGQAPVLVIYGKNNRPSGIPDRFSGSSSGNTASLTITGAQAEDEADYYCQSSVYTMPPVVFGGGTKLTVLG
modifications: glycosylated Heavy Chain (site not given)
